Substitutions are numbered along the chain they refer to.
Experiments:
[1] = biological target: T1, M.SsoII (monomer on DNA) (UniProt P34879 1-379); assay: stopped-flow fluorescence anisotropy; 100 uM AdoMet; k1 390 uM-1 s-1, k-1 88 s-1, k2 1.13 s-1, k-2 9.6 s-1; EMSA: 50 mM Tris-HCl pH 7.5, 100 mM NaCl, 5 mM beta-mercaptoethanol, 0.1 mg/mL BSA, 25% glycerol, 100 uM AdoHcy, 37 C then room temperature, 2.5 nM DNA; stopped-flow: 50 mM Tris-HCl pH 7.5, 100 mM NaCl, 5 mM beta-mercaptoethanol, 25 C, 100 nM DNA; conditions: protein: recombinant; tags: N-terminal His-tag MRGS(H)6TDPLETC; label: TAMRA (position 5)
T1 sequence: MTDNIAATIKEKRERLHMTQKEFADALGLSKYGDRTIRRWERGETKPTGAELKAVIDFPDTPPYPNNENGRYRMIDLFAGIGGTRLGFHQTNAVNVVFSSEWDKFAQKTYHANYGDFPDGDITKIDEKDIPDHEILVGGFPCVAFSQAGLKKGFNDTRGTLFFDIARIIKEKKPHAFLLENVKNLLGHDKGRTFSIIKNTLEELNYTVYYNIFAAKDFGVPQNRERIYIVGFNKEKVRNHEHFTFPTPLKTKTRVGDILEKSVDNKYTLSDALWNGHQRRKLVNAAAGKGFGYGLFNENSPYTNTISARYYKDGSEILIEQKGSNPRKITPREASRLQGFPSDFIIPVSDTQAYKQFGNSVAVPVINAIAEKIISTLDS

[2] = biological target: T2, M.SsoII (two subunits on DNA) (UniProt P34879 1-379); assay: EMSA; 100 uM AdoHcy; C1 and C2; EMSA: 50 mM Tris-HCl pH 7.5, 100 mM NaCl, 5 mM beta-mercaptoethanol, 0.1 mg/mL BSA, 25% glycerol, 100 uM AdoHcy, 37 C then room temperature, 2.5 nM DNA; stopped-flow: 50 mM Tris-HCl pH 7.5, 100 mM NaCl, 5 mM beta-mercaptoethanol, 25 C, 100 nM DNA; conditions: protein: recombinant; tags: N-terminal His-tag MRGS(H)6TDPLETC; chain copies: 2; label: TAMRA (position 5)
T2 sequence: T1 sequence

[3] = biological target: T1, M.SsoII (monomer on DNA); assay: stopped-flow fluorescence anisotropy; 100 uM AdoMet; k1 386 uM-1 s-1, k-1 154 s-1, k2 0.68 s-1, k-2 6.5 s-1; EMSA: 50 mM Tris-HCl pH 7.5, 100 mM NaCl, 5 mM beta-mercaptoethanol, 0.1 mg/mL BSA, 25% glycerol, 100 uM AdoHcy, 37 C then room temperature, 2.5 nM DNA; stopped-flow: 50 mM Tris-HCl pH 7.5, 100 mM NaCl, 5 mM beta-mercaptoethanol, 25 C, 100 nM DNA; conditions: protein: recombinant; tags: N-terminal His-tag MRGS(H)6TDPLETC; label: TAMRA (position 21)
[4] = biological target: T2, M.SsoII (two subunits on DNA); assay: EMSA; 100 uM AdoHcy; cooperative, C2 much more than C1; EMSA: 50 mM Tris-HCl pH 7.5, 100 mM NaCl, 5 mM beta-mercaptoethanol, 0.1 mg/mL BSA, 25% glycerol, 100 uM AdoHcy, 37 C then room temperature, 2.5 nM DNA; stopped-flow: 50 mM Tris-HCl pH 7.5, 100 mM NaCl, 5 mM beta-mercaptoethanol, 25 C, 100 nM DNA; conditions: protein: recombinant; tags: N-terminal His-tag MRGS(H)6TDPLETC; chain copies: 2; label: TAMRA (internal, on dU C5, position 5)
[5] = biological target: T1, M.SsoII (monomer on DNA); assay: stopped-flow fluorescence anisotropy; 100 uM AdoHcy; k1 352 uM-1 s-1, k-1 71 s-1, k2 2.30 s-1, k-2 12.8 s-1; EMSA: 50 mM Tris-HCl pH 7.5, 100 mM NaCl, 5 mM beta-mercaptoethanol, 0.1 mg/mL BSA, 25% glycerol, 100 uM AdoHcy, 37 C then room temperature, 2.5 nM DNA; stopped-flow: 50 mM Tris-HCl pH 7.5, 100 mM NaCl, 5 mM beta-mercaptoethanol, 25 C, 100 nM DNA; conditions: protein: recombinant; tags: N-terminal His-tag MRGS(H)6TDPLETC; label: TAMRA (internal, on dU C5, position 5)
[6] = biological target: T2, M.SsoII (two subunits on DNA); assay: EMSA; 100 uM AdoHcy; C2* above 2:1 protein/DNA, second molecule presumably nonspecific; EMSA: 50 mM Tris-HCl pH 7.5, 100 mM NaCl, 5 mM beta-mercaptoethanol, 0.1 mg/mL BSA, 25% glycerol, 100 uM AdoHcy, 37 C then room temperature, 2.5 nM DNA; stopped-flow: 50 mM Tris-HCl pH 7.5, 100 mM NaCl, 5 mM beta-mercaptoethanol, 25 C, 100 nM DNA; conditions: protein: recombinant; tags: N-terminal His-tag MRGS(H)6TDPLETC; chain copies: 2; label: TAMRA
[7] = biological target: T1, M.SsoII (monomer on DNA); assay: stopped-flow fluorescence anisotropy; 100 uM AdoHcy; k1 226 uM-1 s-1, k-1 158 s-1, k2* 0.22 s-1, k-2* 0.50 s-1; EMSA: 50 mM Tris-HCl pH 7.5, 100 mM NaCl, 5 mM beta-mercaptoethanol, 0.1 mg/mL BSA, 25% glycerol, 100 uM AdoHcy, 37 C then room temperature, 2.5 nM DNA; stopped-flow: 50 mM Tris-HCl pH 7.5, 100 mM NaCl, 5 mM beta-mercaptoethanol, 25 C, 100 nM DNA; conditions: protein: recombinant; tags: N-terminal His-tag MRGS(H)6TDPLETC; label: TAMRA (bottom 33 or 35)
[8] = biological target: T1, M.SsoII (monomer on DNA); assay: stopped-flow fluorescence anisotropy; 100 uM AdoHcy; k1 181 uM-1 s-1, k-1 143 s-1, k2* 0.40 s-1, k-2* 1.5 s-1; EMSA: 50 mM Tris-HCl pH 7.5, 100 mM NaCl, 5 mM beta-mercaptoethanol, 0.1 mg/mL BSA, 25% glycerol, 100 uM AdoHcy, 37 C then room temperature, 2.5 nM DNA; stopped-flow: 50 mM Tris-HCl pH 7.5, 100 mM NaCl, 5 mM beta-mercaptoethanol, 25 C, 100 nM DNA; conditions: protein: recombinant; tags: N-terminal His-tag MRGS(H)6TDPLETC; label: TAMRA (top 25 or bottom 33/35)

B1: 60reg-2 (dsDNA)
DNA 1: ACGTTCATAATTGGAATCTTTTCAGGACAAATTGTCCTTTTTCCAACACTTAATTCTGGT
DNA 2: ACCAGAATTAAGTGTTGGAAAAAGGACAATTTGTCCTGAAAAGATTCCAATTATGAACGT
What does the source list for B1?
binding result [1]: binds; binding result [2]: binds

B2: 60reg-3 (dsDNA)
DNA 1: B1 DNA 1 with T20G, T21C, T40G, T41C
DNA 2: B1 DNA 2 with A20G, A21C, A40G, A41C
Does B2 bind [2]?
Result: binds

B3: 60reg-4 (dsDNA)
DNA 1: GAAAGTTTTTTCATGCACGTTCATAATTGGAATCAAAACAGGACAAATTGTCCTAAAACC
DNA 2: GGTTTTAGGACAATTTGTCCTGTTTTGATTCCAATTATGAACGTGCATGAAAAAACTTTC
Does B3 bind [3]?
Result: binds

B4: 60reg-1 (dsDNA)
DNA 1: ACGTTCATAATTGGAATCAAAACAGGACAAATTGTCCTAAAACCAACACTTAATTCTGGT
DNA 2: ACCAGAATTAAGTGTTGGTTTTAGGACAATTTGTCCTGTTTTGATTCCAATTATGAACGT
Does B4 bind [4]?
Result: binds

Does B4 bind [5]?
Result: binds

B5: 60half-2 (dsDNA)
DNA 1: B4 DNA 1 with A24C, G25A, G26T, A27T, C28A, A29T, A30C
DNA 2: B4 DNA 2 with T31G, T32A, G33T, T34A, C35A, C36T, T37G
Does B5 bind [6]?
Result: binds

B6: 60half-1 (dsDNA)
DNA 1: B4 DNA 1 with T32C, T33A, G34T, C36A, C37T, T38C
DNA 2: B4 DNA 2 with A23G, G24A, G25T, C27A, A28T, A29G
Does B6 bind [6]?
Result: binds

B7: 60met-mC (dsDNA)
DNA 1: GACTTACAGTTGATAGTATGAAGCTAGAGCCAGGTTGGCAGCATTCTACTCATGTACTTG
DNA 2: CAAGTACATGAGTAGAATGCTGCCAACCTGGCTCTAGCTTCATACTATCAACTGTAAGTC
modifications: 5-methylcytosine in top strand of methylation site
Does B7 bind [7]?
Result: binds

B8: 60met (dsDNA)
DNA 1: B7 DNA 1
DNA 2: B7 DNA 2
Does B8 bind [8]?
Result: binds

From PMC6100179, “Kinetic Basis of the Bifunctionality of SsoII DNA Methyltransferase”
